This is an account of results in publication PMC5955193, “Streptococcus gallolyticus subsp. gallolyticus endocarditis isolate interferes with coagulation and activates the contact system” (Virulence, 2017).

As a reminder, the Kd is the free concentration of one partner at which half of the binding sites on the other are occupied at equilibrium, for simple one-to-one binding.

The target of assay [1] is T1, human coagulation factor XII (human).
T1 construct: coagulation factor XII (serine protease zymogen), human; also called FXII; contact factor XII; source: bought: Haemochrom Diagnostica, Germany
The experiment in a line: MST; NT-647 labeled Gallo2179 kept constant (estimated 50-300 nM); 16-step serial dilution of non-labeled FXII (6.25 μM - 0.19 nM) or HK (4.15 μM - 0.12 nM); Monolith NT.115; three independent measurements. The settings on record: both partners purified.

Assay [2] addresses T1, human coagulation factor XII. The experiment in a line: SPR; Biacore 3000, CM3 chip, Gallo2179 immobilised (1900 RUs) by amine coupling; FXII as analyte at 12.5 - 200 nM; 25°C, PBS running buffer; 1:1 Langmuir global fit. The settings on record: both partners purified. On the technique in general: In SPR one partner is held on a chip, and binding of the other changes the refractive index at the surface.

B1: Pil1 collagen-binding adhesin Gallo2179 of Streptococcus gallolyticus subsp. gallolyticus UCN34, recombinant (natural protein)
chain: MFYYLGEGIINFRKLFIALVLIIFSFFTVSEVRAADVSNRVTSLTVATTELQDGGRTTVRVEFNDRAGKIHSGDTIEVTWSISNSIYLNGYTKSIPLTIQGVNVGTLEVTEHNAIFKFNSNIETMENVSGWGEFEVIGRNVTNTSSENTGTAVVQVGGYSQNISITKPQSGTGTSSFYYKTGDIQPSDTNRVRWFLLVNNNKEYVESDVTIEDDIQSGQTLDMSSFDITISGYQNKRFVGESALEEFKRSCPNSSIEITQKSEGGHISIRLSRDDVILNTISIHYKTKILDFDQEKFANNSNITYKPLYKDWVTNKESNYEVVNVNANGGVDGSRYTSVTVNKVWNDKDNQDGKRSDKVVIQLLADGQEISGKQLELSEENGWSGTFEKLNKYHSDNTLITYTVKEVTDLPDYQTTVSENSKNNYTITNTHIPEVIDLSGKKIWDDNNNQDGIRPETITVHLLANGVDTGQVKTVSKSDNWEYQFKDLPKYQNGEKVVYTVSEDVVVGYEMSVSGMNLTNTHTPEVTNILISKYWDDNDDKLKKRPESIQITLHANGKEYQTVTLTASNQWQYEFKDLPKYKDGEKIAYTVTEADVPNYQLISIEEDESGNWKITNKVEESYLFPNTGGKGISGYYTVGIVLLLSIGLLFLKKFIGDY
modifications: fluorescent label NT-647 covalently attached by NHS coupling (in the MST only)
In the case of B1, the Kd in assay [1] is 0.0129 µM; in assay [2], 0.014 µM.
